Holding throughout (settings): scale: relative to the halftime of the reference standard
Experiment [1] has as its target Ac-His-Ser-Asp-Ala-MeVal-Phe-Thr-Glu-Asn-Tyr-Thr-Lys-Leu-Arg-Lys-Arg-Nle-Ala-Ala-Lys-Lys-Tyr-Leu-Asn-Asp-Leu-Lys-Lys-Gly-Gly-Thr-NH2 (Artificial Sequence).
The target in experiment [2] is Ac-His-Ala-Asp-Ala-MeVal-Phe-Thr-Glu-Asn-Tyr-Thr-Lys-Leu-Arg-Lys-Gln-Nle-Ala-Ala-Lys-Lys-Tyr-Leu-Asn-Asp-Leu-Lys-Lys-Gly-Gly-Thr-NH2 (Artificial Sequence).
In experiment [3] the target is Ac-His-Ser-Asp-Ala-MeVal-Phe-Thr-Glu-Asn-Tyr-thr-Lys-Leu-Arg-Lys-Gln-Nle-Ala-Ala-Lys-Lys-Tyr-Leu-Asn-Asp-Leu-Leu-Lys-Gly-Gly-Thr-NH2 (Artificial Sequence).
Experiment [4] addresses Ac-His-Ala-Asp-Ala-MeVal-Phe-Thr-Glu-Asn-Tyr-Thr-Lys-Leu-Arg-Lys-Gln-Nle-Ala-Ala-Lys-Lys-Tyr-Leu-Asn-Asp-Leu-Leu-Lys-Gly-Gly-Thr-NH2 (Artificial Sequence).

Regarding “Elastase (Human Neutrophil, Calbiochem, Cat # 324681) (from UniProt P08246) (enzyme)”, the Relative elastase stability in experiment [1] was determined as 1.8; in experiment [2] it was 5.7; in experiment [3], 3.4; in experiment [4] it was 3.6.

Source of the values: patent publication US20080096807A1, “Cyclic vasoactive intestinal peptide receptor-2 agonists” (priority 2006, published 2008).
